Test results taken from patent US20140370037A1.

B1: SC16.15 (antibody, V domains shown)
VH: QVQLQQSGAELAKPGASVKMSCKASGYTFTRYWIHWIKQRPGQGLEWIGYINPTTVYTEFNQNFKDKATLTADKSSTTASMQLSSLTSEDSAVYYCARGGSNFFDYWGQGTTLTVSS
VL: DIQMTQSPASLAASVGETVAITCRASENIYYNLAWYQQKQGKSPQLLIYTANSLEDGVPSRFSGSGSGTQYSLKINSMQPEDSATYFCKQAYDVPPTFGGGTKLEIK
B2: SC16.34 (antibody, V domains shown)
VH: QIQLVQSGPELKRPGETVKISCKASGYTFTNYGMNWVKQAPGKGLKWMGWINTYTGDPTYADDFKGRFAFSLETSASTAYLQINNLKNEDTATYFCARIGGNSPSDYWGQGTSLTVSS
VL: SIVMTQTPKFLLVSAGDRVTITCKASQSVSNDVAWYQQKPGQSPKLLIYYASNRYSGVPDRFTGSGYGTDFTFTISTVQAEDLAVYFCQQDYSSPWTFGGGTKLEIK
B3: hSC16.15-ADC1 (antibody, human IgG1, V domains shown)
VL: AIQLTQSPSSLSASVGDRVTITCRASENIYYNLAWYQQKPGKAPKLLIYTANSLEDGVPSRFSGSGSGTDFTLTISSLQPEDFATYFCKQAYDVPPTFGGGTKLEIK
VH: QVQLVQSGAEVKKPGASVKVSCKASGYTFTRYWIHWIRQAPGQGLEWMGYINPTTVYTEFNQNFKDRVTMTRDTSTSTVYMELSSLRSEDTAVYYCARGGSNFFDYWGQGTTVTVSS
modifications: here or on the partner: PBD dimer drug-linker ADC1 on reduced Cys residues (positions not stated)
B4: hSC16.56-ADC1 (antibody, human IgG1, V domains shown)
VL: EIVMTQSPATLSVSPGERATLSCKASQSVSNDVVWYQQKPGQAPRLLIYYASNRYTGIPARFSGSGSGTEFTLTISSLQSEDFAVYYCQQDYTSPWTFGQGTKLEIKR
VH: QVQLVQSGAEVKKPGASVKVSCKASGYTFTNYGMNWVRQAPGQGLEWMGWINTYTGEPTYADDFKGRVTMTTDTSTSTAYMELRSLRSDDTAVYYCARIGDSSPSDYWGQGTLVTVSS
modifications: here or on the partner: PBD dimer drug-linker ADC1 on reduced Cys residues (positions not stated)

What was measured:
[1] = biological target: human DLL3 on cells (human) (UniProt Q9NYJ7); experiment: cell-based or functional assay
Chain of human DLL3 on cells (human) (Q9NYJ7 27-618): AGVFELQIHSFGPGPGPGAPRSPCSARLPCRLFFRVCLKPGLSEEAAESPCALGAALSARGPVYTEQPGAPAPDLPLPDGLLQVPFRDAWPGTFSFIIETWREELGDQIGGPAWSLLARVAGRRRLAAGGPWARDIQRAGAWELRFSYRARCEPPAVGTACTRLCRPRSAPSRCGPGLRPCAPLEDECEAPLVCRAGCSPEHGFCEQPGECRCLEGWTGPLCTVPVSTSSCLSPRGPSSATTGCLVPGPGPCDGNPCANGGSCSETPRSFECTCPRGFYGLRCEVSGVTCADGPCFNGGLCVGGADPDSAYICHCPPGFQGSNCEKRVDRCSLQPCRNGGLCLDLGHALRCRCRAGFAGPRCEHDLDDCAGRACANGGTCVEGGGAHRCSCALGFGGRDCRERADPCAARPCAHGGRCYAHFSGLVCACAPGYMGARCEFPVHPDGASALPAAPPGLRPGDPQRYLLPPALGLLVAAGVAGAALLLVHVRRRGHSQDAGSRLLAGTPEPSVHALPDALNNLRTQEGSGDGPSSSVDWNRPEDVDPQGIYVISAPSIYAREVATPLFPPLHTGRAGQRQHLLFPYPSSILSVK

[2] = biological target: human DLL3 on cells (human), Q9NYJ7; experiment: cell-based or functional assay
Chain of human DLL3 on cells (human), Q9NYJ7 (Q9NYJ7 27-618): as above

| Binder | EC50 of killing of OV26 NTX tumor cells with anti-mouse IgG Fab-saporin [1] [pM] | further results |
| --- | --- | --- |
| B1 | 0.14 | – |
| B2 | 5.7 | – |
| B3 | – | concentration that killed 50% of LU37 NTX cells (7 days, Cell Titer Glo) [2]: < 10 ng/mL |
| B4 | – | dose that killed 50% of naïve KDY66 cells (7 days, Cell Titer Glo) [2]: 13.3 pM |
